In data set [1] the target is T1, RPA (Rfa1-Rfa2-Rfa3) (Saccharomyces cerevisiae, UniProt P22336;P26754;P26755 1-621;1-273;1-122). Kind of data set: EMSA; minimal length for stable first RPA; EMSA: 20 mM Tris-HCl pH 7.5, 150 (or 15) mM KCl, 1 mM DTT, 100 ug/mL BSA, 5 nM DNA, 30 C 10 min; curtains: 40 mM Tris-HCl pH 7.5, 150 or 15 mM NaCl, 2 mM MgCl2, 1 mM DTT, 0.2 mg/mL BSA; MST: 1x PBS-P+. The note with it: protein: recombinant; tags: His tag (MST: His-tagged RPA, RED-tris-NTA dye); copies: 1;1;1; label: 5'-32P.
T1 sequence (P22336 whole entry, chain 1 of 3): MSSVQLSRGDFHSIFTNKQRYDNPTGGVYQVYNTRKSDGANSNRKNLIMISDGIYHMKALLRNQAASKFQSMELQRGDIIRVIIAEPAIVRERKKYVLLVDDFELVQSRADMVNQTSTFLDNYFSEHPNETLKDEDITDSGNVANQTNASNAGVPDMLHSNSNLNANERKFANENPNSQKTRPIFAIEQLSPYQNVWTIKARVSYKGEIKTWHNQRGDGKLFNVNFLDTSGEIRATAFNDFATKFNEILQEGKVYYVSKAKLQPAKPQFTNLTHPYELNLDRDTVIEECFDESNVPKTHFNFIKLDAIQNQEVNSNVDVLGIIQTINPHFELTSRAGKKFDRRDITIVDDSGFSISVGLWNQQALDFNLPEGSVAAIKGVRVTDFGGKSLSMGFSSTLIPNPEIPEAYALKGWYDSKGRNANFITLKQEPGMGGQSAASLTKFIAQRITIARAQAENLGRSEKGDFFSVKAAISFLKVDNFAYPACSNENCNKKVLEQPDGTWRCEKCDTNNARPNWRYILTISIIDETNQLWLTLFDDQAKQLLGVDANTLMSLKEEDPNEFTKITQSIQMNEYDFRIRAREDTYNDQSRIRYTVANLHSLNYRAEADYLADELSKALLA
T1 sequence (P26754 whole entry, chain 2 of 3): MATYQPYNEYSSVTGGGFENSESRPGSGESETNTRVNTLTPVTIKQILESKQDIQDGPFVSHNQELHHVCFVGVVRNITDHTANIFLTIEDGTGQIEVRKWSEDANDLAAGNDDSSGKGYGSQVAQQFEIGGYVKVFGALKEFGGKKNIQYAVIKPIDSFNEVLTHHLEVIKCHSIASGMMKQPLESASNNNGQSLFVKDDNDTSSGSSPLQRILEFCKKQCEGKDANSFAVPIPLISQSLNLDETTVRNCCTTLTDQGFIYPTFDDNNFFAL
T1 sequence (P26755 whole entry, chain 3 of 3): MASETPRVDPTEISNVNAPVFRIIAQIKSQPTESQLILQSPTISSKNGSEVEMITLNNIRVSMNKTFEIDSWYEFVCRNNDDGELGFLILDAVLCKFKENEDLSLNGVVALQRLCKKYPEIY

For data set [2], the target named is T1, RPA (Rfa1-Rfa2-Rfa3). Kind of data set: EMSA; 150 mM KCl; second RPA binds at 50-100 nM; EMSA: 20 mM Tris-HCl pH 7.5, 150 (or 15) mM KCl, 1 mM DTT, 100 ug/mL BSA, 5 nM DNA, 30 C 10 min; curtains: 40 mM Tris-HCl pH 7.5, 150 or 15 mM NaCl, 2 mM MgCl2, 1 mM DTT, 0.2 mg/mL BSA; MST: 1x PBS-P+. The note with it: protein: recombinant; tags: His tag (MST: His-tagged RPA, RED-tris-NTA dye); copies: 1;1;1; label: 5'-32P.

The target of data set [3] is T1, RPA (Rfa1-Rfa2-Rfa3). Kind of data set: EMSA; 150 mM KCl; single shifted species, affinity similar to dT30; EMSA: 20 mM Tris-HCl pH 7.5, 150 (or 15) mM KCl, 1 mM DTT, 100 ug/mL BSA, 5 nM DNA, 30 C 10 min; curtains: 40 mM Tris-HCl pH 7.5, 150 or 15 mM NaCl, 2 mM MgCl2, 1 mM DTT, 0.2 mg/mL BSA; MST: 1x PBS-P+. The note with it: protein: recombinant; tags: His tag (MST: His-tagged RPA, RED-tris-NTA dye); copies: 1;1;1; label: 5'-32P.

For data set [4], the target named is T1, RPA (Rfa1-Rfa2-Rfa3). Kind of data set: EMSA; 150 mM KCl; 2-stage binding; EMSA: 20 mM Tris-HCl pH 7.5, 150 (or 15) mM KCl, 1 mM DTT, 100 ug/mL BSA, 5 nM DNA, 30 C 10 min; curtains: 40 mM Tris-HCl pH 7.5, 150 or 15 mM NaCl, 2 mM MgCl2, 1 mM DTT, 0.2 mg/mL BSA; MST: 1x PBS-P+. Conditions: protein: recombinant; tags: His tag (MST: His-tagged RPA, RED-tris-NTA dye); copies: 1;1;1; label: 5'-32P.

For data set [5], the target named is T1, RPA (Rfa1-Rfa2-Rfa3). In words: EMSA; 150 mM KCl; single shifted species; EMSA: 20 mM Tris-HCl pH 7.5, 150 (or 15) mM KCl, 1 mM DTT, 100 ug/mL BSA, 5 nM DNA, 30 C 10 min; curtains: 40 mM Tris-HCl pH 7.5, 150 or 15 mM NaCl, 2 mM MgCl2, 1 mM DTT, 0.2 mg/mL BSA; MST: 1x PBS-P+. Conditions: protein: recombinant; tags: His tag (MST: His-tagged RPA, RED-tris-NTA dye); copies: 1;1;1; label: 5'-32P (EMSA); unlabeled (MST).

Data set [6] concerns the target RPA-MeGFP (Saccharomyces cerevisiae, UniProt P22336;P26754;P26755 1-621;1-273;1-122). In words: MST; similar to RPA; EC50 only in figure; PBS-P+; EMSA: 20 mM Tris-HCl pH 7.5, 150 (or 15) mM KCl, 1 mM DTT, 100 ug/mL BSA, 5 nM DNA, 30 C 10 min; curtains: 40 mM Tris-HCl pH 7.5, 150 or 15 mM NaCl, 2 mM MgCl2, 1 mM DTT, 0.2 mg/mL BSA; MST: 1x PBS-P+. Conditions: protein: recombinant; tags: MeGFP (eGFP A206K)-6xHis at Rfa2 C-terminus, LG linker; copies: 1;1;1; label: 5'-32P (EMSA); unlabeled (MST).

The target in data set [7] is T1, RPA (Rfa1-Rfa2-Rfa3). In words: EMSA; minimal length for stable third RPA; EMSA: 20 mM Tris-HCl pH 7.5, 150 (or 15) mM KCl, 1 mM DTT, 100 ug/mL BSA, 5 nM DNA, 30 C 10 min; curtains: 40 mM Tris-HCl pH 7.5, 150 or 15 mM NaCl, 2 mM MgCl2, 1 mM DTT, 0.2 mg/mL BSA; MST: 1x PBS-P+. The note with it: protein: recombinant; tags: His tag (MST: His-tagged RPA, RED-tris-NTA dye); copies: 1;1;1; label: 5'-32P.

The target in data set [8] is T1, RPA (Rfa1-Rfa2-Rfa3). In words: EMSA; 150 mM KCl; second RPA at 20 nM, third at 200 nM; EMSA: 20 mM Tris-HCl pH 7.5, 150 (or 15) mM KCl, 1 mM DTT, 100 ug/mL BSA, 5 nM DNA, 30 C 10 min; curtains: 40 mM Tris-HCl pH 7.5, 150 or 15 mM NaCl, 2 mM MgCl2, 1 mM DTT, 0.2 mg/mL BSA; MST: 1x PBS-P+. The note with it: protein: recombinant; tags: His tag (MST: His-tagged RPA, RED-tris-NTA dye); copies: 1;1;1; label: 5'-32P.

RPA-MeGFP, sequence (P22336 whole entry, chain 1 of 3): as the sequence (P22336 whole entry, chain 1 of 3) above
RPA-MeGFP, sequence (P26754 whole entry, chain 2 of 3): as the sequence (P26754 whole entry, chain 2 of 3) above
RPA-MeGFP, sequence (P26755 whole entry, chain 3 of 3): as the sequence (P26755 whole entry, chain 3 of 3) above

As to TTTTTTTTTTTTTTT (ssDNA) [dT(15)], the binding result in data set [1] was “binds”. In the case of TTTTTTTTTTTTTTTTTTTTTTTTTTTTTTTTTTTTTTTT (ssDNA) [dT(40)], the binding result in data set [2] is reported as “binds”.

On to TTTTTTTTTTTTTTTTTTTT (ssDNA) [dT(20)], for which, in data set [3], the binding result was “binds”. As to TTTTTTTTTTTTTTTTTTTTTTTTTTTTTTTTTTTTTTTTTTTTTTTTTT (ssDNA) [dT(50)], the binding result in data set [4] is recorded as “binds”. Regarding TTTTTTTTTTTTTTTTTTTTTTTTTTTTTT (ssDNA) [dT(30)], the binding result in data set [5] and in data set [6] was “binds” in each case.

B1: dT(54) (ssDNA)
DNA: TTTTTTTTTTTTTTTTTTTTTTTTTTTTTTTTTTTTTTTTTTTTTTTTTTTTTT
On to B1, for which, in data set [7], the binding result is “binds”.

B2: dT(60) (ssDNA)
DNA: TTTTTTTTTTTTTTTTTTTTTTTTTTTTTTTTTTTTTTTTTTTTTTTTTTTTTTTTTTTT
In the case of B2, the binding result in data set [8] was “binds”.

Values taken from article PMC10313831, “ssDNA accessibility of Rad51 is regulated by orchestrating multiple RPA dynamics”.
